# Test results: publication PMC11260466, “Binding of the TRF2 iDDR motif to RAD50 highlights a convergent evolutionary strategy to inactivate MRN at telomeres”
# B1: 48-mer DNA duplex (dsDNA)
# DNA 1: TAGTGCTGTAGGAGAATATACGGGCTGCTCGTGTTGACAAGTACTGAT
# DNA 2: ATCAGTACTTGTCAACACGAGCAGCCCTATATTCTCCTACAGCACTA
# Target: HsRAD50-head (Homo sapiens, UniProt Q92878;Q92878 1-200;1113-1312)
# Experiment: EMSA; Mg-ATP; EMSA: 20 mM Bis-Tris propane pH 8.0, 200 mM NaCl, 0.5 mM TCEP, Mg-ATP added to RAD50, 500 nM DNA duplex; 5% polyacrylamide, 0.5x TBE, 4 C gel run (binding temperature not stated)
# Conditions: protein: recombinant; tags: C-terminal 3C site + 2xStrep-II on the 1-200 fragment; chain copies: 2;2; label: 5'-carboxyfluorescein (F) on strand 1; blunt ends; as printed S2 is 47 nt and lacks the G opposite C21 of S1 (1-nt bulge, possibly a misprint)
# HsRAD50-head, sequence (Q92878 1-200, chain 1 of 2): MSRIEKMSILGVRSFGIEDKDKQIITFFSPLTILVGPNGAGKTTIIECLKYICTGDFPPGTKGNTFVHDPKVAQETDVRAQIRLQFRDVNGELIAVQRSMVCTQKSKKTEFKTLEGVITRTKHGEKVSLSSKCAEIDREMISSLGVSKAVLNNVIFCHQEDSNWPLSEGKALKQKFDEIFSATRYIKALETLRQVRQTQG
# HsRAD50-head, sequence (Q92878 1113-1312, chain 2 of 2): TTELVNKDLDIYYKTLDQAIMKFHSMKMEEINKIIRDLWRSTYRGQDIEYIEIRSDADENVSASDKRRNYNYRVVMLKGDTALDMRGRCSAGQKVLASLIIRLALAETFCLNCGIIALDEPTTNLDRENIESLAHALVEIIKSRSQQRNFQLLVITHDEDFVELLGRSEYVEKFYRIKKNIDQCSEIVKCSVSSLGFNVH
binder,measurement,value
B1,binding result,binds
